Here are results for 1 molecule from patent US8993714B2, “Streptavidin macromolecular adaptor and complexes thereof” (Imiplex LLC, priority 2007, dated 2015).

For data set [1] the following is noted: Zarembinski et al. 1998; cited from earlier work.
Data set [2] can be described thus: Binding of purified MJ0577 to nucleotide mimicking resin Cibacron Blue. Particulars: 25 mM sodium phosphate buffer pH 7.6. The procedure:
(§1) The structure of MJ0577 was determined in the context of a structural genomics project aimed at elucidating protein function through 3D structural studies. […] Because the nucleotide was not added to buffers used during purification and crystallization, the authors concluded that ATP was scavenged from the growth media. […] Because the purification protocol developed here includes heating and dialysis at pH 5.2 steps, we believed that it was possible that the protein would be isolated as the ATP-free form. To test this hypothesis, the affinity of purified MJ0577 for the nucleotide mimicking resin, Cibacron Blue, was tested following the procedure successfully applied in the purification of an MJ0577 structural relative, E. coli YnaF (Saveanu et al. 2002). […] MJ0577 was dialyzed overnight against 8 M guanidinium HCl (GuHCl) 0.2 M TRIS pH 8.2, 5 mM DTT, then dialyzed overnight against 8 M urea, and finally equilibrated to non-denaturing conditions by dialysis against 25 mM sodium phosphate buffer pH 7.6. In a separate experiment, MJ0577 was dialyzed overnight against 2 M GuHCl in 25 mM L-histidine pH 5.6, 2 M GuHCl in 25 mM CHES pH 9.8, and 2 M GuHCl in 25 mM sodium phosphate buffer pH 7.8, 20% DMSO. Half of each sample was then heated at 40° C. for one hour. […] Such results can enable the ready establishment of proper conditions for a biotin-ATP substituted SAMA.

Data set [3] can be described thus: Binding of MJ0577 to ATP immobilized on a resin via the g-phosphate, analysis by PAGE. Particulars: after dialysis against GuHCl/urea. The procedure: as §1

B1: MJ0577: protein dimer isolated from the thermostable bacterium Methanococcus jannaschii, 162 residues, SEQ ID NO: 11; SAMA template (protein, listed as Methanococcus jannaschii)
chain: MSVMYKKILYPTDFSETAEIALKHVKAFKTLKAEEVILLHVIDEREIKKRDIFSLLLGVAGLNKSVEEFENELKNKLTEEAKNKMENIKKELEDVGFKVKDIIVVGIPHEEIVKIAEDEGVDIIIMGSHGKTNLKEILLGSVTENVIKKSNKPVLVVKRKNS
modifications: dimer
notes: SAMA template
B1: the “thermostable to” value in data set [1] is “at least 80 °C”. In data set [2], the “binding to Cibacron Blue resin” value is reported as “No binding was observed”. In addition, the “interaction with ATP resin” value in data set [3] is recorded as “essentially no interaction”.
